T1: Human Solute Carrier Family 34 Member 2 (SLC34A2) (human, UniProt O95436 1-690)
T1 construct: Endogenous on OVCAR-3 cells; engineered on 786-O cells in the CAR kinetics assay; also called NaPi2b; NPT2B
T1 sequence: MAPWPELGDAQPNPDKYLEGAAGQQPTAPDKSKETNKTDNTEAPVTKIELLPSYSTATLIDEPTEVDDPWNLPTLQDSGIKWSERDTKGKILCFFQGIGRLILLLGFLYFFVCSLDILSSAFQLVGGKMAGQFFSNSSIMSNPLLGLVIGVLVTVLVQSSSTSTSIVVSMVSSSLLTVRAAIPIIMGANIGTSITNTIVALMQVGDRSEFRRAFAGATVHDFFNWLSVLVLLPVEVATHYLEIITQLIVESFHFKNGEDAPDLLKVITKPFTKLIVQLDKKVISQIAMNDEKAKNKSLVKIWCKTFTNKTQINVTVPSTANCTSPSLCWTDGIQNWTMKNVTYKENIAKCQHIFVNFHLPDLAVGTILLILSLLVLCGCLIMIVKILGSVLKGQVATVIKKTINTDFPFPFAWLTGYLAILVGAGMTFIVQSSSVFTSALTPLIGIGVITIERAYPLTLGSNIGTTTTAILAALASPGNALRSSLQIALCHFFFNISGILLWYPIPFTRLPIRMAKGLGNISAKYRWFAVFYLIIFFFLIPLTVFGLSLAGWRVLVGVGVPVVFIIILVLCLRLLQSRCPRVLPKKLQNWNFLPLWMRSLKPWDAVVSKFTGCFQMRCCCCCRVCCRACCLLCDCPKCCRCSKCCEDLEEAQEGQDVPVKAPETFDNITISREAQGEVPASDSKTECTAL

T2: ECL-mFc fusion protein (human SLC34A2 ECL2 fused to murine Fc) (human, biotinylated (site not stated))
T2 construct: The range 234-362 is the ECL2 part counted on human SLC34A2; also called mECL2-Fc protein
T2 chain: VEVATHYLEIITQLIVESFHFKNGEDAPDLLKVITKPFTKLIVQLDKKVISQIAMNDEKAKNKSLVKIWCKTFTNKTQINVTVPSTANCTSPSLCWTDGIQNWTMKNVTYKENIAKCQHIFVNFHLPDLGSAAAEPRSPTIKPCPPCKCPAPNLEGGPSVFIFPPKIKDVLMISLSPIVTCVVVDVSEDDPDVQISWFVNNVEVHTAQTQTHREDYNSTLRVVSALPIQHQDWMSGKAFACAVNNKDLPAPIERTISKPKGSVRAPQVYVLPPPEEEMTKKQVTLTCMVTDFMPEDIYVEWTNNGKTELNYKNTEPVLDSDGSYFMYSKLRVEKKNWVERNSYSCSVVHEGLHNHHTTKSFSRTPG

T3: SLC34A2 peptide fragment (peptide 1) (human, biotinylated (site not stated))
T3 construct: ELISA antigen captured on NeutrAvidin plates; also called SLC34A2 peptide immunogen
T3 peptide: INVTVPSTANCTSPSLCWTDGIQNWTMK


Legend:
[1] = biological target: T1, Human Solute Carrier Family 34 Member 2 …; experiment: flow cytometry on OVCAR-3 cells (endogenous human SLC34A2), hIgG1/kappa, 8 five-fold dilutions from 133 nM;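 also: binding read as geometric mean fluorescence intensity, with non-transfected HEK293 cells serving as the negative control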
From the text: Antibodies were screened by standard flow cytometry methods for binding to human OVCAR-3 human ovarian cancer cells which endogenously express human SLC34A2. HEK293 cells were used as a non-transfected negative control. […] Stained cells were then resuspended in cold FACS buffer and analyzed by flow cytometry for geometric mean fluorescent intensity (GeoMFI) and total cell counts on an iQue automated flow cytometer.

[2] = biological target: T2, ECL-mFc fusion protein (human SLC34A2 …); experiment: ELISA, biotinylated antigen on NeutrAvidin plate, anti-human Fc-HRP
Method: (§1) Briefly, NeutrAvidin plates were coated at 1 μg/ml overnight, washed and incubated with blocking buffer for at least 1 hr. Biotinylated antigens as well as irrelevant antigens were then added at 1 μg/ml for at least 1 hr at RT, followed by rigorous washing. […] After additional wash steps, 3,3′,5,5′-Tetramethylbenzidine (TMB) substrate was added and optical density read using an appropriate plate reader.

[3] = biological target: T3, SLC34A2 peptide fragment (peptide 1); experiment: as above
Method: as §1

| EC50 [1] [nM] | Max Signal by flow cytometry [1] | binding result [2] | binding result [3] | Binder |
| --- | --- | --- | --- | --- |
| 6 | 211 | – | no binding | SLC34A2 Ab 6 (antibody, human IgG1, kappa, V domains shown, recombinant hIgG1/kappa) VH: QVQLLESGGGLVQPGGSLRLSCAASGFTFSSSAMAWVRQAPGKGLEWVSAISSSGDNTYYADSVKGRFTISRDTSKNTLSLQMSSLRAEDTAIYYCAKQGTNWGLYFDYWGQGTLVTVSS VL: DIQMTQSPSSLSASVGDRVTIACRASQVISNYLAWYQQKPGKVPKLLIYVASTLQSGVPSRFSGSGSGTDFTLTISSLQPEDVATYYCQNYNSAPWTFGQGTKLEIKR |
| 41 | 233 | binds | binds | SLC34A2 Ab 13 (antibody, human IgG1, kappa, V domains shown, recombinant hIgG1/kappa from TAP products in Expi293) VH: QVQLVESGGGLVQPGRSLRLSCIGSGFTFGEYAMSWVRQAPGKGLEWVGFIRTKPYGGTTEFAASVKGRFTMSRDDSKSIAYLEMNSLKTEDTAVYYCTLIPALRFLEWLPWGQGTLVTVSS VL: EIVLTQSPSSLSASVGDRVTVTCRANQDINNYLAWYQQTPGKVPKLLIYAASTLQSGVPSRFSGSGSGTDFTLTISSLQPEDVATYYCQNYYSVPWTFGQGTKLEIKR |
| 16 | 278 | binds | binds | SLC34A2 Ab 7 (antibody, human IgG1, kappa, V domains shown, recombinant hIgG1/kappa from TAP products in Expi293) VH: QVQLQESGPELVKPSETLSITCTVSGGSISSRSYYWGWIRQPPGKGLEWIGSIYYGGSTYYNPSLKSRVTISADTSKNQFSLKLNSVTAADTAVFYCVRHPAGYSTRWSAFDIWGQGTMVTVSS VL: EIVLTQSPSSLSASVGDRVTITCRASQSISSYLNWYQQKPGRAPELLIYAASSLQSGVPSRFSGSGSGTDFTLTISSLQPEDFATYYCQQSFSSLTFGQGTRLEIKR |
| 5 | 271 | – | no binding | SLC34A2 Ab 5 (antibody, human IgG1, kappa, V domains shown, recombinant hIgG1/kappa) VH: QVQLQESGPGLVKPSETLSLTCSVSGGSISSSSYYWGWIRQPPGKGLEWIGSIDYSGSTYYNPSLKSRVTISIDTSKNQFSLRLSSVTAAEKAVYYCARHGRGTIGYFDYWGQGTLVTVSS VL: DIQMTQSPSSLSASVGDRVTITCRASQSISSYLNWYQQKPGKAPKLLIYAASSLLTGVPSRFTGSGSGTDFTLTISSLQPEDFGTYYCQQSYSPPLTFGGGTKVEIKR |
| 7 | 330 | binds | binds | SLC34A2 Ab 2 (antibody, human IgG1, kappa, V domains shown, recombinant hIgG1/kappa from TAP products in Expi293) VH: QVQLQESGPGLVKPSETLSLTCTVSGGSVSSGSYYWSWIRQAPGKGLEWIGYIYYSGSNYYNPSLKSRVTISVDTSKNQFSLKLRAVTAADTAVYYCARWMTTIKGYFDYWGQGTLVTVSS VL: EIVLTQSPDFQSVTPKEKVTITCRASQSVGSGLHWYQQKPDQSPKLLIKYASQSFSGVPSRFSGSGSGTDFTLTINSLETEDAATYFCQQSSSLPWTFGQGTKVEIKR |
| 7 | 353 | binds | binds | SLC34A2 Ab 1 (antibody, human IgG1, kappa, V domains shown, recombinant hIgG1/kappa from TAP products in Expi293) VH: QVQLQESGPGLVKPSETLSLTCTVSGGSVSSGNFYWSWIRQPPGKGLEWIGYIYYSGSTYYNPSLKSRVTISVDTSKNQFSLKLRSLTAADTAVYYCARWMTKVKGYFDYWGQGTLVTVSS VL: EIVLTQSPDFQSVTPKEKVTITCRASQSVGSGLHWYQQKPDQSPKLLIKYASQSFSGVPSRFSGSGSGTDFTLTINSLEVEDAATFYCLQSSSLPWTFGQGTKVEIKR |

The remaining lines, values behind:

| Binder | EC50 [1] [nM] | Max Signal by flow cytometry [1] | binding result [2] | binding result [3] |
| --- | --- | --- | --- | --- |
| SLC34A2 Ab 11 (antibody, human IgG1, kappa, V domains shown, recombinant hIgG1/kappa from TAP products in Expi293) VH: QVQLQESGPGLVKPSETLSLTCTVSGGSISSSSYYWGWIRQPPGKGLEWIGSLYYSGSTYYNPSLKSRVTISVDTSKNQFSLKLNSVTAADTAVYYCTRHPRGIAARWGNWFDPWGQGTLVTVSS VL: EIVLTQSPSSLSASVGDRLTITCRASQTISSYLNWYQQKPGKAPKVLIYAASSLQSGVPSRFSGSGSGTDFTLTISSLQPEDFATYYCQQSFIIPYTFGQGTKLEIKR | 6 | 224 | – | – |
| SLC34A2 Ab 10 (antibody, human IgG1, kappa, V domains shown, recombinant hIgG1/kappa) VH: QVQLLESGGGLVQPGASLRLSCAASGFTFSTYAMTWVRQAPGKGLEWVSGINGGGDTTYYADSVKGRFTISRDNSKNTLYLQMNSLRAEDTAVYYCAVRGYTYGYFFDYWGQGTLVTVSS VL: DIQMTQSPSSLSASVGDRVTITCRASQGISNYLAWYQQRPGKVPKLLIYAASTLRSGVPSRFSGSGSGTDFTLTISSLQPEDVATYYCQKYNSAPLTFGGGTKVEIKR | 20 | 218 | – | – |
| SLC34A2 Ab 4 (antibody, human IgG1, kappa, V domains shown, recombinant hIgG1/kappa from TAP products in Expi293) VH: QVQLLESGGGLVQPGGSLRLSCAASGFTFSSYAMNWVRQAPGKGLEWVSAISGGVGNTYYADSVKGRFTISRDNSKNTLYLQMNSLRAEDTAVYYCTKDGPLWGNYFDYWGRGTLVTVSS VL: EIVLTQSPSSLSASVGDRVTITCRASQGISNYLAWYQQKPGKVPNLLIYTASTLQSGVPSRFSGSGSGTDFTLTISSLQPEDVATYYCQKYNSAPFTFGPGTKVDIKR | 5 | 277 | binds | no binding |
| SLC34A2 Ab 9 (antibody, human IgG1, kappa, V domains shown, recombinant hIgG1/kappa) VH: QVQLVESGGGLVQPGRSLRLSCSGSGFTSGDYAVSWVRQAPGKGLEWVGFIRTKPYGETTEYAASVKGRFTISRDDSKSIAYLQMNSLKAEDTAVFYCTFIPVSRFLEWLPWGQGIPVTVSS VL: DIQMTQSPSSLSAFVGDRVTITCRASQDIGNYLAWYQQTPEKVPKLLIYAASTLQSGVPSRFSGSGSGTDFTLTISSLQPEDVATYYCQNYYSVPWTFGQGTKVEIKR | 37 | 281 | – | – |
| SLC34A2 Ab 8 (antibody, human IgG1, kappa, V domains shown, recombinant hIgG1/kappa from TAP products in Expi293) VH: QVQLQESGPGLVKPSETLSLTCTVSGGSISSRSYYWGWIRQPPGKGPEWIGSIYYSGSTFYNPSLKSRVTISEDTSKSQFSLKVTSVTAADTAVYYCARHPAGYSSSWSAFDIWGQGTMVTVSS VL: EIVLTQSPSSLSASVGDRVTITCRASQSISSYLNWYQLKPGKAPKLLIYAASSLHSGVPSRFSGSGSGTDFTLTISSLQPADFATYYCQQAYISLTFGQGTRLEIKR | 6 | 354 | – | – |
| SLC34A2 Ab 15 (antibody, human IgG1, kappa, V domains shown, recombinant hIgG1/kappa) VH: QVQLQESGPGLVKPSETLSLTCTVSGGSVSSASYYWSWIRQPPGKGLEYIGYIYYSGSTYYNPSLKSRVTISIDTSKNQFSLNLRSVTAADTAVYYCARYIVGRPGFNWFDPWGQGTLVTVSS VL: DIQMTQSPSSLSASVGDRVTITCRASQSISSYLNWYQQKPGKAPKFLISPASSLQSGVPSRFSGSGSGTDFTLTISSLQPEDFATYYCQQSYSIPWTFGQGTKVEIKR | 8 | 346 | – | – |
| SLC34A2 Ab 16 (antibody, human IgG1, kappa, V domains shown, recombinant hIgG1/kappa) VH: QVQLQESGPGLVKPSETLSLTCTVSGDSVSSVSYYWSWIRQPPGKGLEWIGYIWYSGSTYYNPSLKSRVTISIDTSKNQFSLKLRSVTAADTAVYYCARYIVGRPGFNWFDPWGQGTLVTVSS VL: DIQMTQSPSSLSASVGDRVTITCRASQTISSYLNWYQQKPGKAPKLLISPASNLQSGVPSRFSGSGSGTDFTLTISSLQPEDFATYYCQQSYIIPWTFGQGTKVEIKR | 6 | 296 | – | – |
| SLC34A2 Ab 14 (antibody, human IgG1, kappa, V domains shown, recombinant hIgG1/kappa) VH: QVQLQESGPGLVKPSETLSLTCTVSGGSVSSGSYYWSWIRQPPGKGLEWIGYIFYSGSTYYNPSLKSRVTISVDTSKNQFSLKLTSVTAADTAVYFCARWMTTVKGYFDYWGQGTLVTVSS VL: EIVLTQSPDFQSVTPKESVTITCRASQSVGSGLHWYQQKPDQSPKLLIKYASQSFSGVPSRFSGSGSGTDFTLTINSLEAEDAATYYCLQSSSLPWTFGQGTKVEIKR | 9 | 288 | binds | binds |

— US20250297255A1 (ARSENAL BIOSCIENCES, published 2025)
